Experimental data published in PMC6212638, “In silico identification and biochemical characterization of the human dicarboxylate clamp TPR protein interaction network” (FEBS Open Bio, 2018).
Blank lines part the entries; values can stand above or below the molecule they belong to. Ends that are not written are not given here. Peptide text beside a SMILES is read from it.

Assays:
[1] = molecular target: T1, AIP (Homo sapiens, UniProt O00170); test: Dot-blot competition assay: HRP-conjugated peptide vs unlabeled peptide on nitrocellulose-immobilized AIP
T1 sequence (O00170 1-330): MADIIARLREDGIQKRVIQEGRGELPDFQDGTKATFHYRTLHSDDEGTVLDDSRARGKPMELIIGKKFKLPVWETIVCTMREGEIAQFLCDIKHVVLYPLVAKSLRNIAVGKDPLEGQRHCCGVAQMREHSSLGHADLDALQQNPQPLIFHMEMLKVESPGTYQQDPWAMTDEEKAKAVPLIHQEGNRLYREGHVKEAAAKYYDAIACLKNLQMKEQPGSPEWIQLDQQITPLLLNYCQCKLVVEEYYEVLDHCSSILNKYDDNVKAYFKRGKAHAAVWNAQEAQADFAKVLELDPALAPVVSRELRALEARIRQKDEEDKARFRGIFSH
Method: (§1) Full‐length cDNA clones for respective proteins were obtained from IMAGE consortium (SourceBioScience, Nottingham, UK) and PCR amplified with forward and reverse primers (Table 1) containing overhangs with appropriate restriction sites and cloned into pGEX6 vectors (GE Healthcare, Uppsala, Sweden). Inserts were sequence verified, and the plasmids were transformed into BL21 Escherichia coli strain. Glutathione‐S‐transferase (GST) fusion proteins were purified from 1 L overnight culture after 2 h of induction with 1 mM IPTG. Cells were pelleted, resuspended in 1× PBS and sonicated 3 × 20 s on ice. EDTA and protease inhibitor cocktail were added to prevent proteolysis. The suspension was centrifuged for 30 min at 50 000 g to remove cell debris, and supernatant was loaded onto a 1 mL GSTrap™ 4B column (GE Healthcare). After column washing with 30 mL PBS, GST fusion proteins were eluted with 2.5 mL 10 mM glutathione in PBS. Eluate was passed through a PD‐10 column (GE Healthcare) to remove free glutathione. To prepare GST‐tag‐free proteins, we performed overnight cleavage at 4 °C with PreScission protease (GE Healthcare) followed by passage through a GSTrap column to remove free GST protein. Average yield from 1 L starting culture was 1–5 mg of purified proteins. Protein‐containing fractions were collected, checked with SDS/PAGE and kept at −20 °C.
(§2) Peptides were dissolved in HEPES‐KOH buffer pH 7.2 at concentration of 1 mg·mL^−1 and incubated with equimolar amounts of activated horseradish peroxidase (HRP) (Lightning‐link® HRP labeling kit cat. 701‐004, from Innova Biosciences) for 5 min. Reaction was quenched with 0.1 M Tris/HCl, pH 7.5 for 10 min and the products were passed through PD‐10 columns (GE Healthcare). Dot‐blot experiments were performed using GST‐tag‐free proteins applied to the nitrocellulose membrane. After blocking of membrane with 3% BSA in TBS‐T buffer for 1 h and subsequent wash with TBS‐T, HRP‐conjugated peptides (1 × 500 times dilution) were applied and incubated for 1 h. After subsequent washing (3 × 10 min, TBS‐T), membrane was dried and signals were quantified using a digital Fujifilm LAS3000 imager and LAS3000 software. In competition experiments, increasing concentrations of unlabeled peptides were co‐incubated with peptide–HRP conjugates.
(§3) Each peptide was separately coupled to HRP.

[2] = molecular target: T2, FKBP51 (Homo sapiens, UniProt Q13451); test: Dot-blot competition assay: HRP-conjugated peptide vs unlabeled peptide on immobilized FKBP51
T2 sequence (Q13451 1-457): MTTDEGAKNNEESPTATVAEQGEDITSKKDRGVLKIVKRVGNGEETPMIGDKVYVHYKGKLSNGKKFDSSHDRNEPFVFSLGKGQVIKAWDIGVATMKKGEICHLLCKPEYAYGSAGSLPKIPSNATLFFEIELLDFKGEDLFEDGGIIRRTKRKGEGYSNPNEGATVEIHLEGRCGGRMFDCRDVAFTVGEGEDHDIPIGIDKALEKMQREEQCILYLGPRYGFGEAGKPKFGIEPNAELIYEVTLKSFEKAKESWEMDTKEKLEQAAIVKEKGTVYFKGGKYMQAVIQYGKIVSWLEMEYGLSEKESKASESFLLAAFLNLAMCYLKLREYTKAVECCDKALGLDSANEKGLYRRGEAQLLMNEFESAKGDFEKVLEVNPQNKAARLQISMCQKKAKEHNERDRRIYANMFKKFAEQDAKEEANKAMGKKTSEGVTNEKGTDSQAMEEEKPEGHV
Method: as §1, §2, §3

[3] = test system: Tom70; test: Dot-blot assay of Tom70 with HRP-conjugated Hsp90 and Tom20 peptides in presence of unconjugated peptides; type: binding, human; conditions: 20 μM unconjugated peptide
Method: In subsequent experiments, non‐fluorescent peptides were used. […] Cell impermeable Hsp90 peptide served as a treatment control.
Figure 6 In vitro and in situ analysis of interactions of 10‐amino‐acid peptides corresponding to C termini of Hsp90 and Tom20 with Tom70. (A) Dot‐blot assay of interactions between Tom70 and HRP‐conjugated 10‐amino‐acid peptides corresponding to C termini of Hsp90 and Tom20 in the presence of 20 μM of unconjugated peptides. (B) Fluorescence imaging of HEK293 cells in the presence of 20 μM of fluorescein‐labeled Hsp90, R9–Hsp90, Tom20 and R9–Tom20 peptides. (C) Inhibition of Tom20–Tom70 and Hsp90–Tom70 interactions with R9–Hsp90 and R9–Tom20 in HEK293 cells measured by PLA. n = 3. Graphs were created and SD values were calculated using PRISM, version 7.02. *P‐value < 0.05 compared to control; comparisons are based on one‐way ANOVA. (D) Inhibition of Tom20–Tom70 and Hsp90–Tom70 interactions with R9–Hsp90 and R9–Tom20 in HEK293 cells measured by mammalian two‐hybrid assay. n = 3. Graphs were created and SD values were calculated using PRISM, version 7.02. *P‐value < 0.05 compared to control; comparisons are based on one‐way ANOVA.

[4] = molecular target: T3, AIP (human, UniProt O00170 1-330); test: far-Western, overlay or dot blot; GST-tag-free FKBP51 or AIP on nitrocellulose, blocked with 3% BSA in TBS-T, probed 1 h with HRP-conjugated peptide, alone or with increasing concentrations of unlabeled peptide; luminescence quantified; IC50 estimated; n = 3; conditions: both partners purified
T3 construct: GST-tag-free protein spotted on nitrocellulose; also called nitrocellulose-immobilized AIP; source: E. coli BL21, purified as GST fusion (GSTrap), GST removed with PreScission protease
T3 sequence (looked up): T1 sequence (O00170 1-330)

[5] = molecular target: T4, FKBP51 (human, UniProt Q13451 1-457); test: as above; conditions: both partners purified
T4 construct: GST-tag-free protein spotted on nitrocellulose; also called immobilized FKBP51; source: E. coli BL21, purified as GST fusion (GSTrap), GST removed with PreScission protease
T4 sequence (looked up): T2 sequence (Q13451 1-457)

[6] = molecular target: T5, Tom70(94–608) (UniProt O94826 94-608); test: far-Western, overlay or dot blot; Tom70 on nitrocellulose, probed with HRP-conjugated Hsp90 or Tom20 peptide in the presence of 20 μM of unconjugated peptides; conditions: both partners purified
T5 construct: mitochondrial import receptor Tom70, residues 94-608 as the primers are named; the reverse primer codes for ...KPPTL-stop; source: dot blots used GST-tag-free proteins
T5 sequence (looked up): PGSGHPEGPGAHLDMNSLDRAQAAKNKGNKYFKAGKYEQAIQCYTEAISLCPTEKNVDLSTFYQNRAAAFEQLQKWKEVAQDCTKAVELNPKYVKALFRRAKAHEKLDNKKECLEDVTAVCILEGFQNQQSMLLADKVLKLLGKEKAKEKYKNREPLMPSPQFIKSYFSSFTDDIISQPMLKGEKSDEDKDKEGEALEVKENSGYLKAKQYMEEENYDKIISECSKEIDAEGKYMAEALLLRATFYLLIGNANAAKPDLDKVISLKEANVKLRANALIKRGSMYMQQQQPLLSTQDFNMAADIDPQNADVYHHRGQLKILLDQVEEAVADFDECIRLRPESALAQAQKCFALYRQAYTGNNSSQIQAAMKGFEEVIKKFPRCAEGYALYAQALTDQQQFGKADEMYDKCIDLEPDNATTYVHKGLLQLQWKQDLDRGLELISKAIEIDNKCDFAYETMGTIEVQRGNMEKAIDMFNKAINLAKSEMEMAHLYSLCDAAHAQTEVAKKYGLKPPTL

IC50 [1]: 10.6 ± 1 µM
IC50 [2]: 27.6 ± 2.85 µM
Molecule: CC[C@H](C)[C@H](NC(=O)[C@@H](NC(=O)[C@@H]1CCCN1C(=O)CNC(=O)[C@H](CO)NC(=O)CN)[C@@H](C)O)C(=O)N[C@@H](CCC(=O)O)C(=O)N[C@@H](CCC(=O)O)C(=O)N[C@H](C(=O)N[C@@H](CC(=O)O)C(=O)O)C(C)C [Hsp70.1]

IC50 [1]: 8.64 ± 0.8 µM
IC50 [2]: 42.8 ± 4.16 µM
Molecule: CSCC[C@H](NC(=O)[C@H](CC(N)=O)NC(=O)[C@@H](NC(=O)[C@H](CO)NC(=O)[C@H](CC(N)=O)NC(=O)[C@H](CCCCN)NC(=O)[C@@H](N)CCC(=O)O)C(C)C)C(=O)N[C@@H](CC(=O)O)C(=O)N[C@@H](CC(C)C)C(=O)N[C@@H](CC(=O)O)C(=O)O [Hsp105] (H-EKNSVNMDLD-OH)

IC50 [1]: 9.74 ± 0.72 µM
IC50 [2]: 28.2 ± 1.96 µM
Molecule: CC(C)C[C@H](NC(=O)[C@H](CO)NC(=O)[C@H](CCC(N)=O)NC(=O)[C@@H]1CCCN1C(=O)[C@H](CCC(=O)O)NC(=O)[C@H](C)N)C(=O)N[C@@H](CC(=O)O)C(=O)NCC(=O)N[C@H](C(=O)N[C@@H](CC(=O)O)C(=O)O)C(C)C [NADSYN1] (H-AEPQSLDGVD-OH)

IC50 [1]: 55 ± 4.51 µM
IC50 [2]: 189 ± 12.9 µM
Molecule: CSCC[C@H](NC(=O)[C@H](CCCCN)NC(=O)[C@H](CCC(=O)O)NC(=O)[C@H](CC(=O)O)NC(=O)[C@H](CC(=O)O)NC(=O)[C@@H](N)CO)C(=O)N1CCC[C@H]1C(=O)N[C@@H](CC(=O)O)C(=O)N[C@@H](CC(C)C)C(=O)N[C@@H](CCC(=O)O)C(=O)O [p23] (H-SDDEKMPDLE-OH)

IC50 [4]: 47 µM
IC50 [5]: 291 µM
B2: p23 peptide (peptide)
peptide: SDDEKMPDLE
notes: the 10 C-terminal residues of p23 / PTGES3; also called p23 C-terminal peptide; source: synthetic peptide (Peptide 2.0, Inc.), > 95% purity

IC50 [4]: 9 µM
IC50 [5]: 19 µM
B4: Usp19 peptide (peptide)
peptide: PTYSNMEEVD
notes: source: synthetic peptide (Peptide 2.0, Inc.), > 95% purity

IC50 [4]: 6 µM
IC50 [5]: 40 µM
B5: Hsp105 peptide (peptide)
peptide: EKNSVNMDLD
notes: the 10 C-terminal residues of Hsp105; source: synthetic peptide (Peptide 2.0, Inc.), > 95% purity

IC50 [4]: 18 µM
IC50 [5]: 16 µM
binding result [6]: binds
B7: Hsp90β peptide (peptide)
peptide: EDASRMEEVD
notes: the 10 C-terminal residues of Hsp90β; also called Hsp90 peptide; Hsp90β-derived peptide; source: synthetic peptide (Peptide 2.0, Inc.), > 95% purity

Further lines, the molecule ahead of its results:

Molecule: CC(C)C[C@H](NC(=O)[C@H](CC(=O)O)NC(=O)[C@H](Cc1ccc(O)cc1)NC(=O)[C@H](CC(C)C)NC(=O)[C@H](CC(C)C)NC(=O)[C@H](CO)NC(=O)[C@H](CC(N)=O)NC(=O)[C@H](CCC(N)=O)NC(=O)[C@@H](N)Cc1ccccc1)C(=O)N[C@@H](CC(=O)O)C(=O)O [DNAAF2] (H-FQNSLLYDLD-OH)
IC50 [1]: 8.47 ± 0.43 µM
IC50 [2]: 25.6 ± 1.54 µM

Molecule: CC(C)C[C@H](NC(=O)[C@H](CO)NC(=O)[C@H](CCC(N)=O)NC(=O)[C@H](C)N)C(=O)N[C@@H](C)C(=O)N[C@@H](CCC(=O)O)C(=O)N[C@@H](CC(=O)O)C(=O)N[C@@H](CC(=O)O)C(=O)N[C@H](C(=O)N[C@@H](CCC(=O)O)C(=O)O)C(C)C [Tom20] (H-AQSLAEDDVE-OH)
IC50 [1]: 35.3 ± 3.2 µM
IC50 [2]: 132 ± 12.6 µM
competition with HRP-conjugated Hsp90 peptide for Tom70 binding [3]: unable to disrupt

Molecule: CSCC[C@H](NC(=O)[C@H](CC(N)=O)NC(=O)[C@H](CO)NC(=O)[C@H](Cc1ccc(O)cc1)NC(=O)[C@@H](NC(=O)[C@@H]1CCCN1)[C@@H](C)O)C(=O)N[C@@H](CCC(=O)O)C(=O)N[C@@H](CCC(=O)O)C(=O)N[C@H](C(=O)N[C@@H](CC(=O)O)C(=O)O)C(C)C [Usp19] (H-PTYSNMEEVD-OH)
IC50 [1]: 18.8 ± 2.78 µM
IC50 [2]: 19.7 ± 2.55 µM

B1: NADSYN1 peptide (peptide)
peptide: AEPQSLDGVD
notes: the 10 C-terminal residues of NADSYN1; source: synthetic peptide (Peptide 2.0, Inc.), > 95% purity
IC50 [4]: 18 µM
IC50 [5]: 28 µM

B3: HRP-conjugated Hsp90β peptide (peptide)
peptide: EDASRMEEVD
modifications: also: HRP-conjugated
notes: the 10 C-terminal residues of Hsp90β; also called HRP–Hsp90; Hsp90 peptide conjugated to HRP
binding result [6]: binds

Molecule: AQSLAEDDVE (also: HRP-conjugated, the 10 C-terminal residues of Tom20) [HRP-conjugated Tom20 peptide]
binding result [6]: binds

B6: DNAAF2 peptide (peptide)
peptide: FQNSLLYDLD
notes: the 10 C-terminal residues of DNAAF2; source: synthetic peptide (Peptide 2.0, Inc.), > 95% purity
IC50 [4]: 8 µM
IC50 [5]: 25 µM

B8: Tom20 peptide (peptide)
peptide: AQSLAEDDVE
notes: the 10 C-terminal residues of Tom20; also called Tom20 label-free peptide; unlabeled Tom20 peptide; source: synthetic peptide (Peptide 2.0, Inc.), > 95% purity
IC50 [4]: 62 µM
IC50 [5]: 183 µM
